This is an account of results in patent US20100150950A1, “HUMAN ANTIBODIES THAT BIND CD70 AND USES THEREOF” (Medarex, Inc., priority 2006, published 2010).

Substitutions are numbered along the chain they refer to.

Assay [1] relates to monkey rhesus CD70+ B lymphoma cell line LCL8664. As to the kind of experiment: FACS cross-reactivity with rhesus B lymphoma cells. It counts as binding. The settings on record: antibody 1 μg/ml. As for the experimental part: FACS analysis was also employed to access the ability of the anti-CD70 antibody 69A7 cross reacting with the monkey rhesus CD70+B lymphoma cell line, LCL8664 (ATCC#: CRL-1805). Binding of the HuMAb 69A7 anti-CD70 human monoclonal antibody was assessed by incubating 1×10^5 cells with 69A7 at a concentration of 1 μg/ml. The cells were washed and binding was detected with a FITC-labeled anti-human IgG Ab. An isotype control antibody was used as a negative control. Flow cytometric analyses were performed using a FACSCalibur flow cytometry (Becton Dickinson, San Jose, Calif.).

A further assay addresses T1, CD70 on Raji cells (Homo sapiens, UniProt P32970).
T1 construct: endogenous in cells; host or cells: Daudi (ATCC CCL-213), HuT 78 (TIB-161), Raji (CCL-86), Granta 519 (DSMZ 342)
T1 sequence (P32970 1-193): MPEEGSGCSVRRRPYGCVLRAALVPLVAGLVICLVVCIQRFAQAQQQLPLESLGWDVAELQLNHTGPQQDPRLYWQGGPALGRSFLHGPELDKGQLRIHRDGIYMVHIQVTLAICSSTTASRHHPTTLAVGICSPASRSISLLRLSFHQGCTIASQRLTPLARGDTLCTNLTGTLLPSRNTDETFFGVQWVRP
The assay can be described thus: Competition FACS assay with FITC-conjugated 69A7 on Raji cells. The note with it: naked antibody 10 μg/ml, then FITC-conjugated 69A7 10 μg/ml. It counts as binding. As for the experimental part:
A competition FACS assay was carried out to elucidate the binding specificity of 69A7 against 2H5. Raji cells were incubated with either naked 69A7, 2H5, an isotype control antibody or no antibody at a concentration of 10 μg/ml. After wash, the cells were incubated with FITC-conjugated 69A7 at a concentration of 10 μg/ml. The cells were washed and binding was detected with a FITC-labeled anti-human IgG Ab. Flow cytometric analyses were performed using a FACSCalibur flow cytometry (Becton Dickinson, San Jose, Calif.).
(In general: Flow cytometry measures light scatter and fluorescence of single cells or particles in a stream.)

In a further assay the target is T2, CD70 (Homo sapiens, UniProt P32970).
T2 sequence (P32970 1-193): T1 sequence (P32970 1-193)
As to the kind of experiment: Epitope binding experiments using BIAcore. As for the experimental part: Such cross-competing antibodies can be identified based on their ability to cross-compete with 2H5, 10B4, 8B5, 18E7, 69A7, 69A7Y or 1F4 in standard CD70 binding assays. For example, standard ELISA assays can be used in which a recombinant human CD70 protein is immobilized on the plate, one of the antibodies is fluorescently labeled and the ability of non-labeled antibodies to compete off the binding of the labeled antibody is evaluated. Additionally or alternatively, BIAcore analysis can be used to assess the ability of the antibodies to cross-compete.
A general note: SPR reads the build-up and loss of mass on a sensor chip optically.

Assay [2] concerns peptide specific CD8+ T cells. As to the kind of experiment: CMV peptide specific CD8+ T cell expansion in PBMC. It is filed as cell-based, human. Here is the method:
Human MHC class I haplotype B*3501+ peripheral blood mononuclear cells (PBMC) pre-screened for cytomegalovirus (CMV) specific T cell responses (Astarte, Inc) were cultured in the presence of 25 ng/ml of B*3501 binding CMV peptide […] (SEQ ID NO:90) (ProImmune, Oxford, UK) and serial dilutions of the HuMAb 2H5 for 11 days. Cultures were analyzed by flow cytometry for CD8+ T cells by PE conjugated anti-CD8 staining (clone RPA-T8, BD Biosciences), for peptide specific CD8+ T cells by APC labeled peptide-MHC Class I pentameric oligomer staining (F114-4B; ProImmunc) and for viability by lack of propidium iodide staining. An isotype control antibody was used as a negative control. […] CD8+ T cell expansion (FIG. 37A). […] Data is representative of one additional experiment performed with the same donor.
Human MHC class I haplotype B*3501+PBMC pre-screened for cytomegalovirus (CMV) specific T cell responses (Astarte, Inc) were cultured in presence of 25 ng/ml of B*3501 binding CMV peptide […] (ProImmune) (SEQ ID NO:90) and 20 μgs/ml of the HuMAb 2H5 in the presence or absence of serial dilutions of an anti-human CD16 (FcRγIII) functional blocking Ab (clone 3G8; BD Biosciences) for 11 days and were then analyzed by flow cytometry for peptide specific CD8+ cell numbers as described above. […] Approximately 1000-fold more 3G8 was required to reverse 2H5 NF mediated inhibition compared to 2H5.

A further assay has as its system MEC-1 cells. As to the kind of experiment: ADCC fluorescence cytotoxicity assay, MEC-1. It is filed as cell-based, human. The settings on record: target to effector ratio 1:50. Here is the method:
In this example, a defucosylated and non-defucosylated anti-CD70 monoclonal antibody was tested for the ability to kill CD70+cells in the presence of effector cells via antibody dependent cellular cytotoxicity (ADCC) in a fluorescence cytotoxicity assay
Human Anti-CD70 monoclonal antibody 2H5 was defucosylated as described above. Human effector cells were prepared from whole blood as follows. Human peripheral blood mononuclear cells were purified from heparinized whole blood by standard Ficoll-paque separation. The cells were resuspended in RPMI1640 media containing 10% FBS (culture media) and 200 U/ml of human IL-2 and incubated overnight at 37° C. The following day, the cells were collected and washed once in culture media and resuspended at 2×10^7 cells/ml. […]
The CD70+ cell lines ARH-77 (human B lymphoblast leukemia; ATCC Accession No. CRL-1621), MEC-1 (human chronic B cell leukemia; DSMZ Accession No. ACC 497), SU-DHL-6 (human B cell lymphoma, DSMZ Accession No. Acc572), IM-9 (human B lymphoblast; ATCC Accession No. CCL-159) and HuT 78 (human cutaneous lymphocyte lymphoma; ATCC Accession No. TIB-161), were tested for antibody specific ADCC to the defucosylated and non-defucosylated human anti-CD70 monoclonal antibody 2H5 using the Delfia fluorescence emission analysis as follows. […]

B1: anti-CD70 human monoclonal antibody 69A7 (antibody, V domains shown)
VH: QVQLQESGPGLVKPSETLSLTCTVSGGSVSSDYYYWSWIRQPPGKGLEWLGYIYYSGSTNYNPSLKSRVTISVDTSKNQFSLKLRSVTTADTAVYYCARGDGDYGGNCFDYWGQGTLVTVSS
VL: EIVLTQSPATLSLSPGERATLSCRASQSVSSYLAWYQQKPGQAPRLLIFDASNRATGIPARFSGSGSGTDFTLTISSLEPEDFAVYYCQQRSNWPLTFGGGTKVEIK
notes: Human IgG from hybridoma; also called HuMAb 69A7; FITC-conjugated 69A7
For the molecule B1, in assay [1], the “cross-reactivity with monkey CD70+ B lymphoma cells” value is reported as “cross-reacts”. In addition, in the assay with CD70 on Raji cells, the “blocking of FITC-labeled 69A7 binding” value was “blocked binding”. In the assay with CD70, the “epitope on CD70” value is given as “distinct epitopes”.

B2: 2H5 NF: 2H5 HuMAb lacking fucosyl residues, expressed in CHO cell line Ms704-PF (antibody, V domains shown)
VH: QVQLVESGGGVVQPGRSLRLSCAASGFTFSSYIMHWVRQAPGKGLEWVAVISYDGRNKYYADSVKGRFTISRDNSKNTLYLQMNSLRAEDTAVYYCARDTDGYDFDYWGQGTLVTVSS
VL: B1 VL with F49Y, S92T
Take B2: in assay [2] (25 ng/ml CMV peptide, 11 days), the “peptide specific CD8+ T cell expansion” value was “completely inhibited” and the “total CD8+ cell numbers” value is “no significant reduction”. For the same molecule, the “3G8 required to reverse inhibition compared to 2H5” value in assay [2] (antibody 20 μgs/ml) was “Approximately 1000 fold”. The “effect of anti-CD16 Ab 3G8 on inhibition of peptide specific CD8+ T cell expansion” value in assay [2] (antibody 20 μgs/ml, serial dilutions of 3G8) is “Dose dependent reversal”. In the assay with MEC-1 cells, the “ADCC, % specific lysis of MEC-1” value is “increased percentage of specific lysis”.
